Target: RpL26-eGFP (UniProt P61254)
Experiment: fluorescence cross-correlation spectroscopy (FCCS); live HeLa cells co-transfected with the two labelled proteins, two-photon excitation at 1020 nm, green and red channels, cytoplasm

NCp7-mCherry (natural protein)
percent of NCp7-mCherry molecules that cross-correlate with RpL26-eGFP: 40 to 70%

From publication PMC4344342
